Measurements as given in PMC8960284 (Cell Reports Methods, 2022).

What was measured:
Assay in all cases: FRET or BRET
[1] = biological target: mutant Huntingtin exon1 (mHttex1) with a polyglutamine stretch of Q71, fused to mVenus-mCherry (Q71-VC)
[2] = biological target: mutant Huntingtin exon1 with 39 glutamines, fused to mVenus-mCherry (Q39-VC)
[3] = biological target: mutant Huntingtin exon1 with 54 glutamines, fused to mVenus-mCherry (Q54-VC)
[4] = biological target: wild-type FUS tagged with mVenus-mCherry at the C terminus (FUS-VC) (UniProt P35637)
FRET or BRET = biological target: the molecule itself

mutant Huntingtin exon1 (mHttex1) with a polyglutamine stretch of Q71, fused to mVenus-mCherry (Q71-VC) (domain or fragment)
FRET/donor ratio in foci [1]: 1.3 to 1.4 | FRET/donor ratio of the final foci [1]: 1.48

mutant Huntingtin exon1 with 39 glutamines, fused to mVenus-mCherry (Q39-VC) (domain or fragment)
FRET/donor ratio of the final foci [2]: 1.6

mutant Huntingtin exon1 with 54 glutamines, fused to mVenus-mCherry (Q54-VC) (domain or fragment)
FRET/donor ratio of the final foci [3]: 1.53

wild-type FUS tagged with mVenus-mCherry at the C terminus (FUS-VC) (from UniProt P35637 1-526) (natural protein)
increase of FRET/donor ratio in foci over the dispersed state [4]: 0.06

B1: FUS R521C tagged with mVenus-mCherry at the N terminus (VC-FUS_(R521C)) (natural protein)
chain: MASNDYTQQATQSYGAYPTQPGQGYSQQSSQPYGQQSYSGYSQSTDTSGYGQSSYSSYGQSQNTGYGTQSTPQGYGSTGGYGSSQSSQSSYGQQSSYPGYGQQPAPSSTSGSYGSSSQSSSYGQPQSGSYSQQPSYGGQQQSYGQQQSYNPPQGYGQQNQYNSSSGGGGGGGGGGNYGQDQSSMSSGGGSGGGYGNQDQSGGGGSGGYGQQDRGGRGRGGSGGGGGGGGGGYNRSSGGYEPRGRGGGRGGRGGMGGSDRGGFNKFGGPRDQGSRHDSEQDNSDNNTIFVQGLGENVTIESVADYFKQIGIIKTNKKTGQPMINLYTDRETGKLKGEATVSFDDPPSAKAAIDWFDGKEFSGNPIKVSFATRRADFNRGGGNGRGGRGRGGPMGRGGYGGGGSGGGGRGGFPSGGGGGGGQQRAGDWKCPNPTCENMNFSWRNECNQCKAPKPDGPGGGPGGSHMGGNYGDDRRGGRGGYDRGGYRGRGGDRGGFRGGRGGGDRGGFGPGKMDSRGEHRQDCRERPY
increase of FRET/donor ratio in foci over the dispersed state (FRET or BRET): 0.15
